One assay addresses His-tagged GFP nanobody. In words: BLI.
Assay [1] concerns the target GFP polybody (His-tagged GFP nanobody-TMS reconstituted in peptidisc). The assay can be described thus: BLI. For orientation: BLI is a label-free optical method that tracks binding on a fibre tip over time.

As usually defined, the Kd is the concentration at which binding is half-saturated. On to “His-tagged GFP (green fluorescent protein) (from UniProt P42212 1-238) (natural protein)”, for which the dissociation constant (Kd) turned out to be 0.75 nM in the assay with His-tagged GFP nanobody and 2.72 nM in assay [1].

The record behind these values is paper doi:10.1101/2024.12.31.630897.
